The results in this text go back to PMC7782513, “Structural basis for nuclear import selectivity of pioneer transcription factor SOX2” (Nature Communications, 2021).

The chains are these.
B1: His-tagged SOX2 HMG domain (residues 39-127), wild type (domain or fragment)
chain: not shown
notes: SOX2 HMG domain, human, residues 39-127 of UniProtKB P48431; pET30a+ construct with a TEV site (ENLYFQS) between tag and SOX2; in MST the labelled SOX2 carries the RED-tris-NTA dye of the his-tag labelling kit; also called SOX2 WT; source: E. coli BL21 (DE3) pLysS, purified (HisTrap, SEC); not shown: His6, N-terminal, kept
B2: His-tagged SOX2 K115A (domain or fragment)
chain: not shown
notes: SOX2 HMG domain, human, residues 39-127 of UniProtKB P48431, with K115A; source: E. coli, recombinant, purified; not shown: His6, N-terminal, kept
B3: His-tagged SOX2 R98A (domain or fragment)
chain: not shown
notes: SOX2 HMG domain, human, residues 39-127 of UniProtKB P48431, with R98A; source: E. coli, recombinant, purified; not shown: His6, N-terminal, kept
B4: His-tagged SOX2 K117A (domain or fragment)
chain: not shown
notes: SOX2 HMG domain, human, residues 39-127 of UniProtKB P48431, with K117A; source: E. coli, recombinant, purified; not shown: His6, N-terminal, kept
B5: His-tagged SOX2 R114A (domain or fragment)
chain: not shown
notes: SOX2 HMG domain, human, residues 39-127 of UniProtKB P48431, with R114A; source: E. coli, recombinant, purified; not shown: His6, N-terminal, kept
B6: His-tagged SOX2 T116E (to mimic phosphorylation) (domain or fragment)
chain: not shown
notes: SOX2 HMG domain, human, residues 39-127 of UniProtKB P48431, with T116E; source: E. coli, recombinant, purified; not shown: His6, N-terminal, kept
B7: His-tagged SOX2 R43A (domain or fragment)
chain: not shown
notes: SOX2 HMG domain, human, residues 39-127 of UniProtKB P48431, with R43A; also called R43A-SOX2; source: E. coli, recombinant, purified; not shown: His6, N-terminal, kept
B8: His-tagged SOX2 R40A (domain or fragment)
chain: not shown
notes: SOX2 HMG domain, human, residues 39-127 of UniProtKB P48431, with R40A; source: E. coli, recombinant, purified; not shown: His6, N-terminal, kept
B9: His-tagged SOX2 R113A (domain or fragment)
chain: not shown
notes: SOX2 HMG domain, human, residues 39-127 of UniProtKB P48431, with R113A; source: E. coli, recombinant, purified; not shown: His6, N-terminal, kept
B10: His-tagged SOX2 R57A (domain or fragment)
chain: not shown
notes: SOX2 HMG domain, human, residues 39-127 of UniProtKB P48431, with R57A; source: E. coli, recombinant, purified; not shown: His6, N-terminal, kept
B11: His-tagged SOX2 K42A (domain or fragment)
chain: not shown
notes: SOX2 HMG domain, human, residues 39-127 of UniProtKB P48431, with K42A; source: E. coli, recombinant, purified; not shown: His6, N-terminal, kept
B12: His-tagged SOX2 R56A (domain or fragment)
chain: not shown
notes: SOX2 HMG domain, human, residues 39-127 of UniProtKB P48431, with R56A; source: E. coli, recombinant, purified; not shown: His6, N-terminal, kept

As usually defined, the Kd is the concentration at which binding is half-saturated. High values mean a looser complex, low ones a tighter complex.

In the first assay the target is T1, IMPα3 lacking the IMPβ-binding domain (residues 64-521) (human, UniProt O00629 64-521).
T1 sequence (looked up): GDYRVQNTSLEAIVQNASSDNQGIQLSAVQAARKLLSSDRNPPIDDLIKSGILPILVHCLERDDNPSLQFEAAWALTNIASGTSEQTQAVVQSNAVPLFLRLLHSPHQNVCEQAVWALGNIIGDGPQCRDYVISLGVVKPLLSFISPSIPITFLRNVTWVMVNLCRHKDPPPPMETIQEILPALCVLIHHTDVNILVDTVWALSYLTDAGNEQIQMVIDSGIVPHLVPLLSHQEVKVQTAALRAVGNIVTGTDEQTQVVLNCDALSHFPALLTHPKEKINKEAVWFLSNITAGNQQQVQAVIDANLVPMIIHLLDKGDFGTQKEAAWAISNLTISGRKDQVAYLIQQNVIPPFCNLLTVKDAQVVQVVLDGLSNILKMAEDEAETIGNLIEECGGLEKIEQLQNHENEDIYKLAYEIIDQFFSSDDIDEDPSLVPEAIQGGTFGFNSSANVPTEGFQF
The assay is described as follows: MST; labelled SOX2 at 50 nM (his-tag labelling kit RED-tris-NTA), unlabelled importins titrated; 20 mM HEPES, 150 mM NaCl, pH 8.0; 25 °C; single binding model. To be noted: both partners purified.
Molecule B1 displayed a Kd of 0.102 µM.

Another assay concerns the target IMPα1 lacking the IMPβ-binding domain (residues 70-529) (human, UniProt P52292 70-529). The assay is described as above. To be noted: both partners purified.
B1 displayed a dissociation constant Kd of 0.447 µM.

Another assay addresses IMPα2 lacking the IMPβ-binding domain (residues 70-529) (UniProt P52293 70-529). Described as above. To be noted: both partners purified.
In the case of B1, the Kd turned out to be 0.283 µM.

In a further assay the target is IMPα5 lacking the IMPβ-binding domain (residues 73-538) (human, UniProt P52294 73-538). Described as above. Particulars: both partners purified.
IMPα5 lacking the IMPβ-binding domain (residues 73-538), sequence (P52294 73-538): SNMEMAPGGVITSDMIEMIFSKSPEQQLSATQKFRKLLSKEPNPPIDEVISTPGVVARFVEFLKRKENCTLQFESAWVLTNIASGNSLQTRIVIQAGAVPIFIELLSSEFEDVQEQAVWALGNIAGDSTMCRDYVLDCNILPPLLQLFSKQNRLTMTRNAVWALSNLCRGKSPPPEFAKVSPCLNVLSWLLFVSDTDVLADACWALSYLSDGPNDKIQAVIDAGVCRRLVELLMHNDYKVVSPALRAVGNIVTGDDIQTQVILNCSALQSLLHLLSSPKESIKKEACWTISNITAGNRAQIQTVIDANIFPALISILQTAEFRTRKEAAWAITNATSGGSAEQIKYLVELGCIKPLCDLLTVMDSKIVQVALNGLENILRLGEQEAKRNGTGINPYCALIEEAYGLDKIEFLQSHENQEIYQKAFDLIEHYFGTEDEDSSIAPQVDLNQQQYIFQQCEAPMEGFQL
B1 displayed a Kd of 0.247 µM.

Another assay addresses T1, IMPα3 lacking the IMPβ-binding domain …. The experiment in a line: pull-down; 10 µM His-tagged SOX2 or mutant immobilised on Ni-NTA resin, 20 µM IMPα in 300 µL; washed three times with 50 mM phosphate pH 8.0, 300 mM NaCl, 20 mM imidazole; eluted through TEV cleavage; SDS-PAGE. Particulars: both partners purified.
In the case of B2, the binding result is “binds”.

Turning to B3, the binding result is given as “binds”.

Take B4: the binding result was “binds”.

As to B5, the binding result was “binds”.

In the case of B6, the binding result is “binds”.

As for B7, the binding result is given as “binds”.

Consider B8, for which the binding result is given as “binds”.

As to B9, the binding result is reported as “binds”.

Take B10: the binding result is listed as “binds”.

For B11, the binding result is “binds”.

B12: the binding result is reported as “binds”.
